Consider 138 substances from the supplement of paper PMC12042874.

± gives the uncertainty stated by the source.

This data set in a line: amyloid nucleation score (Sup35N fusion, yeast selection) (log enrichment); library NNK2; higher = more nucleation; inactive = no reads after selection. Put shortly: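 For the nucleation score, DiMSum gave the log enrichment of output over input reads, centred on the mode score of non-aggregating sequences. Psi-negative yeast expressing Sup35N fused to peptides of 20 random codons were induced with 100 μM copper sulfate for 24 hours and grown 7 days at 30°C on medium lacking adenine and uracil. Input and output plasmid inserts were Illumina-sequenced, and sequences with under 100 input reads were excluded.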
For the substance LDKAIHSWGVLDWAVKQDNA, the amyloid nucleation score was found to be 0.293 ± 0.26. The value for LDLCTPRSNKTMVNHDINYF was -1.64 ± 0.77; that for LDLMKSSLGCQKG was -0.001 ± 0.23. To LDMGCNRPEVYGNKCAMVSW belongs 0.75 ± 0.21; to LDTCVFHHLVGIEKATIYR, 0.455 ± 0.48; to LDVIDGYWTGRMTSSFSWMN, 0.679 ± 0.47.

On to LDYLDSVSINGIVQFKQMVW, for which the amyloid nucleation score was -0.285 ± 0.26. To LELVCRPISMALLEEWKGTR belongs 0.393 ± 0.48; to LESVWHILGGFGIMVFYITK, “inactive”. To LESYSQCTLTHSNCVLTDEC belongs 0.909 ± 0.57; to LEVHKGGLNVLSHEGLDVET, 1.19 ± 0.4. LEYERC gave an amyloid nucleation score of -0.097 ± 1.1. To LFAYNDAFSEYFTITYVYQ belongs -1.14 ± 1.1; to LFCSYPNTASRKLAIGIVAS, 0.438 ± 0.55; to LFFTKGKLFNEAI, “inactive”. The value for LFIRSIRPMDVVGVTLSAVE was 0.764 ± 0.41; that for LFISVSYSEFVFQIQDALRC was 1.48 ± 0.12; that for LFLLIIFLCTTYVVIKDPTH was 2.73 ± 0.12. The value for LFLSLRVRRYVQHKKSGSAG was 0.082 ± 1.1; that for LFNEDACTFLTMCANIKVGQ was 4.97 ± 0.081.

LFPFRASRGPVPYKRDQ: the amyloid nucleation score came to 1.89 ± 0.52. With LFQSLNLISINSVVPYEPVT, the amyloid nucleation score was 2.43 ± 0.092. The value for LFSCFKTEWFCITRMDGLIM was 5.731 ± 0.036; that for LFSILAGS was 0.575 ± 0.46; that for LFTIVTTFKRS was 6.443 ± 0.056. To LFVALVGDLFCCWVCGSYGV belongs -1.43 ± 0.78. With LFVASVSLTAHNRGGDTWRR, the amyloid nucleation score stood at 5.8 ± 0.084. To LFVLDNMDDIWNSIISWVGR belongs -0.295 ± 0.65; to LFVPGLNR, 0.047 ± 0.31; to LFWFLCNVMERYRWNVDAYR, -0.625 ± 0.45. The value for LFYGLGLICFLISFPIELNH was “inactive”; that for LFYGNWPVFKGVLFCAVLVG was 0.092 ± 0.79; that for LFYSPSVGCWFLFSYGPHIG was “inactive”. Regarding LGGSSENYGVDCNYYPEMWG, the amyloid nucleation score is -1.24 ± 0.54.

As to LGGTY, the amyloid nucleation score is -0.449 ± 0.64.

On to LGGVSSHSELMPRVKVNWLT, for which the amyloid nucleation score result was “inactive”. Regarding LGGWLNGKGDPSMTASTSAS, the amyloid nucleation score was found to be 0.799 ± 0.32. The value for LGHHIVFAVTPKWTYDDDIK was 0.679 ± 0.62; that for LGHHVQYLRFVWLWQND was 1.17 ± 0.22; that for LGITITARAIIE was -0.898 ± 1.1. The value for LGLCHMLLSDAGWRVRCRGK was 0.276 ± 1; that for LGMCYWGLVTCH was 0.749 ± 0.38; that for LGNIGRTFMYHS was 1.09 ± 0.27. To LGNRLSKIAVGTSFKLFKK belongs 0.138 ± 1.1; to LGPALFICSDEGDMPL, -0.598 ± 0.63. In the case of LGSCHAMRLIEDGSGMEWMF, the amyloid nucleation score is 0.645 ± 0.37.

Substance LGTSWHHRAKE returned an amyloid nucleation score of 3.31 ± 0.086. The value for LGVCICPCRAPEMKDTSHDA was 4.92 ± 0.076. LGYDDGYVAGRGKADMFSLD: the amyloid nucleation score entry is “inactive”. The value for LGYFFGSTFSRAVLFVRLRR was -0.097 ± 0.52. To LHGVVGLFKY belongs -1.55 ± 0.41; to LHLFAKSATSLVIVFAQDLI, -0.455 ± 0.42; to LHNLAAGNSRLTSNLMFALA, “inactive”. With LHSATNG, the amyloid nucleation score is 0.208 ± 0.37. Turning to LHTYYGMCLPRVENISENRV, the amyloid nucleation score entry was “inactive”. Turning to LHVHLGSEGPLHNKIVDAAK, the amyloid nucleation score was -0.168 ± 0.42.

LIEAESSDRGPYVPNQCGWN returned an amyloid nucleation score of 1.11 ± 0.68. The value for LIFLSDFLLPPSSPARDPYL was -0.719 ± 1.1; that for LIFSAEMNLIVTDWTVRLSS was 0.496 ± 0.8; that for LIGFLEEKVLLFIITWCFQ was “inactive”. To LIISRTFVTAPM belongs “inactive”; to LIKLMGKSLTRDRY, -0.771 ± 1.1. The value for LILALVPLLCWMVNGW was -0.567 ± 1.1; that for LIMYR was -0.83 ± 0.3; that for LINFSFSDTAVFYVREGWEH was 6.846 ± 0.039. The substance LIRQMYMGRFYAVNRENH yielded an amyloid nucleation score of -0.743 ± 0.79. The value for LISLTPRSSRPSNERNSSTL was 1.63 ± 0.47. In turn, LIVCRFDFPSNFSVDFFRVM registered an amyloid nucleation score of 0.14 ± 0.74. To LIVYKLV belongs -0.094 ± 0.74; to LIYGDASETLC, 0.227 ± 0.43; to LKFRRYVCKVLWEAYG, 0.153 ± 0.43. In turn, LKLRAPRVMSGIVDSLMWLT came in with an amyloid nucleation score of -0.32 ± 0.63. To LKNRILPFSNHELIVAGLGL belongs -0.388 ± 1; to LKNYSGLMPVI, 3.41 ± 0.068; to LKPPLVAHHGNILCGFLGDG, -1.39 ± 0.78. The value for LKVRKLSLARCVGIHTLQT was 4.4 ± 0.06; that for LLACVSVMFLRSSLINLDRL was -0.637 ± 0.54; that for LLAIVVILKSTAPGKRY was “inactive”.

Regarding LLAKNTSRNRFTHDFVPKVR, the amyloid nucleation score entry was “inactive”. Regarding LLASFGFRKVKIYTLPCILA, the amyloid nucleation score is -1.15 ± 0.76. Take LLATSWSVLEDLYAGNDLYD: the amyloid nucleation score entry is “inactive”.

With LLERSRSSIMCTTNRSLELI, the amyloid nucleation score is 3.18 ± 0.055. To LLFIIMRDLLYPTLEDTFLT belongs 0.317 ± 0.5.

Take LLFMWTWVVVIGRKYANNYF: the amyloid nucleation score entry is “inactive”. The value for LLGGHYP was 0.844 ± 0.52.

On to LLGGWESHSRRNVWYAAGLC, for which the amyloid nucleation score was -0.711 ± 1.1. The value for LLISSLLTSDLLGPSSSVMD was 1.51 ± 0.58. LLIVNCMLANYSFWIQSSGS had an amyloid nucleation score of 5.968 ± 0.029. As for LLLLF, the amyloid nucleation score was -1.58 ± 0.75. To LLLNILLCIDPYIPWCLSLR belongs 0.974 ± 0.57.

The substance LLLNLMLVHTSMTFVRIKLR registered an amyloid nucleation score of 3.13 ± 0.12. With LLLSRGFMGVSKRSMVYRRV, the amyloid nucleation score entry is “inactive”.

Consider LLLVRFAPISV, for which the amyloid nucleation score was -0.176 ± 1.1. The value for LLNCNCIVV was 8.569 ± 0.031; that for LLNFYGGMWRGYLTLRYVFG was 0.201 ± 0.6; that for LLNVPGLVAYEIRGPMRYLF was -0.519 ± 0.44.

In the case of LLPRCDGGVLVHLNDKSYKL, the amyloid nucleation score amounted to 1.32 ± 0.39.

As for LLPWHRIAWDAYCMWGMSSS, the amyloid nucleation score amounted to 0.266 ± 0.21. To LLPWSPLKVVTSGYSTF belongs -1.03 ± 0.78; to LLRCSLHNKLTLSFDFAFVV, “inactive”; to LLRMKTFDHWYRAREGFAYC, -0.512 ± 0.3. The substance LLSDLFCIFVLRKSRSGGWS registered an amyloid nucleation score of 1.04 ± 0.34. LLSISCV had an amyloid nucleation score of 0.512 ± 0.34. The value for LLSMYRFFNTLKSC was -0.087 ± 0.33. The value for LLVRFVLVATRRTLSTV was -0.029 ± 1.1; that for LLVYAQLYRVWVWF was -0.134 ± 0.22; that for LLWCEWKHG was 4.58 ± 0.076.

Consider LLYYPIDGQGDGWLWCVYRV, for which the amyloid nucleation score was -0.067 ± 1.1. The value for LMDERGMTKMTYFVYLLKKA was 0.661 ± 0.23; that for LMFLGWASRNLVDKSTFKWI was -0.843 ± 0.79; that for LMHFSFSVAGRAGNELLFIG was 2.46 ± 0.22. To LMLAYRLIFDDNRTGLSSAS belongs 0.211 ± 0.5; to LMMKKTGCTQFISRYLVRIY, -1.42 ± 1; to LMPGMVGDRRGCNDK, 0.49 ± 0.26. To LMWENFSRRLLYWLLCGS belongs “inactive”. Substance LMYSTFMYHRKHWLLALNQN gave an amyloid nucleation score of 0.034 ± 1.1.

On to LNDNSIGSVILFFSAFLLFY, for which the amyloid nucleation score was 2.92 ± 0.12.

LNLFWKQSGTVRLDDGWRSV registered an amyloid nucleation score of 0.969 ± 0.74.

LNLKRLLLQLFSMPMPVFHV came in with an amyloid nucleation score of -0.023 ± 0.49. To LNMMIINISFRSKSVDGSRM belongs 6.945 ± 0.056; to LNNYRDGLSY, 4.1 ± 0.064; to LNQSKFGKVGTSSVFWLFYN, -1.01 ± 0.31. The value for LNRCLDHRWIPKCVC was 1.36 ± 0.46. To LNRISYHTYSILPNVTIMKS belongs 0.498 ± 0.54; to LNSHSITMLLNSVCGCQSWT, 9.201 ± 0.062; to LNTEMGSLKNL, 3.08 ± 0.06. Substance LNVPGSAMNGRSRNPSF returned an amyloid nucleation score of -0.661 ± 0.48.

LNVRLFSVFFSHTSSSHSEN: the amyloid nucleation score is 3.21 ± 0.061. LNWIIVCLNN registered an amyloid nucleation score of 4.98 ± 0.058. To LNYCHILSMYGNIAIIRSQF belongs 4.48 ± 0.048. To LPCFL belongs 1.93 ± 0.1; to LPHKIM, 0.262 ± 0.53. Substance LPHKSLFDPLWRIGKILIQH gave an amyloid nucleation score of 0.034 ± 1.1.

With LPMNQGLHYKWLFFAISGGL, the amyloid nucleation score entry is “inactive”. The value for LPVVLAGS was -0.191 ± 0.79; that for LQCEIKPMGDTIMW was 1.47 ± 0.54; that for LQCGRIV was -0.204 ± 0.79.

For LQHSTRLNWD, the amyloid nucleation score turned out to be 0.954 ± 0.51.
